{"source": "the DeepSol protein solubility set", "data": [{"test": "soluble on expression in E. coli; label from the status in PepcDB or PDB records", "values": [{"sequence": "MTSPFKVVAVSGGTYRPSRTLVLTQALIAELGQSLPIDSRVIELTDIAAPLGATLARNQAPAELQAVLDEIESADLLLVASPVYRGSYPGLLKHLFDLIDLNALIDTPVLLAATGGTERHALVLDHQLRPLFSFFQAITLPIGVYASEADFDNYRIVSEPLKARIRLAAERAAPLFGGRSELLKIALEHHHHHH", "soluble on expression in E. coli": "not soluble"}, {"sequence": "MTSQPLRVGIGGPVGSGKTALTLALCRELRERYNLAVVTNDIYTQEDAEFLVRNEALAPERIIGVETGGCPHTAIREDASINLEAVDQLNRRFPGLELILVESGGDNLSATFSPELSDLTLYVIDVSAGDKIPRKGGPGICKSDLLVINKIDLAPLVGASLDVMDRDARRMRGDKPFVFSNQKTGQGLDEIIAFIERQGLLTAA", "soluble on expression in E. coli": "not soluble"}, {"sequence": "MTSQPTSSLQGSCSICFEDLKQNDKISAIVCGHIYHHGCISQWIATKRQCPSCRRTVPKNGFVEKLFFDVQRMGGEAEKPPEIDYREEHYKLSTSLKVEQEKLGTLNTENKNLKDTVKSLEKKIIREKDKYRQEIPKLQATINHLTISSEETAYLKRELQESKNRLKTCEFYKILTVHSSEADKQLGEYLKKNGNLDTEKFFQLMKSTNKDLTDKRREAAKEIEQLKMEVQSLKRAAQEDAAIKKV", "soluble on expression in E. coli": "not soluble"}, {"sequence": "MTSSDSNVDPGLGIAVDLGTTTLAASLVDLSSGERLASAGSLNPQREFGADVVSRLDAACRSGEALQRMAALVREELYRLAARLLDSAGEARDRLRMVAVAGNPAMEHLLLGLPVVRLAYPPYRPLFSTSTHISAADLGWDLSGRVALFPLPGGFVGGDTVAFLFGVPDVCAPCPGPRLFLDMGTNGEMVLQCGDVLLGTSAAAGPAFEGGGLACGMAALPGAVNGIIRDGDRVRVTTIGGGQPLGICGSAVLDTVALLLEEGLLDSTGRLLPPEEIASPVGARMGTVGGEPAFILHRDAARTIYLSQGDIRQVQLAKGAIRAGMEVLCERARIRCEDIEEVVLTGSFGAVLSPRSLKFIGIFTEKMVQTTRFVREGALAGAERALTAPEGFEAVDRLARALRVIPLSGTPAFEKHFLKHIDFPSRLEHHHHHH", "soluble on expression in E. coli": "soluble"}, {"sequence": "MTTAHRPTFHPARGGTARGEGDLSKLSNQYSSKDMPSHTKMKYRQTGQETEADLRKKDLRRELEDKERNAIREKRARDSASSSSSHSKRQRMDQIAAESAASVDADEAVDELNSSDDDDSDEDDTAALMAELEKIKKERAEEKAARDEEIKEKEEKQRMENILAGNPLLNDTPAGSSTSGGDFTVKRRWDDDVVFKNCAKGVEERKKEVTFINDAIRSEFHKKFMDKYIK", "soluble on expression in E. coli": "soluble"}, {"sequence": "MTTALYLEDAYKTSCETEVIKVEGNKVFVKETVFYPTGGGQECDTGVIVQDGSVFEVEKVKKEQGEIVHYIKDEAQVKLGPVKLEINWERRHNLMRHHSLLHLIGAVVYEKYGALCTGNQIYPDKARIDFNELQELSSVEVEEIVEEVNKLIKQNKEISTRYMSREEAENAVGMIKTAINLLPTTIQEIRIVTIENLDEQACGGTHVKNTSEIGTLVIDKVKSKGKQNRRFEVRAI", "soluble on expression in E. coli": "not soluble"}, {"sequence": "MTTATSERQKTLLFKAAERQWKEEFAGKETDIRKVDCNIYKGILYQLEIRQVFLDTSLSLKKLSALLETNQTYLSNVVNKYFGCNLKELVNTYRVEYAKELLCSRRCALTELPCSCGFASKSAFYSAFSRIVGVSPLSYQTQERRLEHHHHHH", "soluble on expression in E. coli": "soluble"}, {"sequence": "MTTCFCTGARSGPTVAISADLHQALRGIVAQRMATDPAHDLAHLDRVWVNVQAIASPGADRDVLLAASYLHDLVNLPKNAPDRHTASRRSADEAAPILRDLGFDEAQIAATGHAIAAHSFSAGISPESEEARILRDADRLDALGAIGIARNFSVSGSLGRALYDPADPFCERRTPDDALYSLDHWRVKLLSLPQGMLTDKGRALAEARIALMLRFLDDFAAEIGTPLPEGWTRGLEHHHHHH", "soluble on expression in E. coli": "soluble"}, {"sequence": "MTTERVLQYPNLLKIVPYLSYSKRMELSKVSPEFRSIHSRLDYSLKTMSFSQDYGAISEEGPIEVGSGILKVESIEYIFEYDENMDQVKIKCLLAPELVRFSNDKSIIRRYFHYYLAASQRIVQHVKLRESDSPFRNLQSLKIPSISWTLNGAREYPQFINFQNHVFEKLELINYESIVLTETQVKSCKHLVLKKETIYQEYTVGNENSAIRNFYCILSNMKLELVLGLNYVESFILLCNRLLLDTLHIGSSVTAIFIKEPLLNVWRTLLERYEDSRGTFMGSGHRKCAILSTDNNIKVAVFENYFGKDSNGKESFTAIKMNNNVEFDA", "soluble on expression in E. coli": "not soluble"}, {"sequence": "MTTGTEEARIPLDPFVTDLDGESARLRAAGPLAAVELPGGVPVWAVTHHAEAKALLTDPRLVKDINVWGAWRRGEIPADWPLIGLANPGRSMLTVDGAEHRRLRTLVAQALTVRRVEHMRGRITELTDRLLDELPADGGVVDLKAAFAYPLPMYVVADLMGIEEARLPRLKVLFEKFFSTQTPPEEVVATLTELASIMTDTVAAKRAAPGDDLTSALIQASENGDHLTDAEIVSTLQLMVAAGHETTISLIVNAVVNLSTHPEQRALVLSGEAEWSAVVEETLRFSTPTSHVLIRFAAEDVPVGDRVIPAGDALIVSYGALGRDERAHGPTADRFDLTRTSGNRHISFGHGPHVCPGAALSRMEAGVALPALYARFPHLDLAVPAAELRNKPVVTQNDLFELPVRLAHHHH", "soluble on expression in E. coli": "soluble"}, {"sequence": "MTTHQDGNADGASATARTVSLDVVVVGAGTSGCYAAATVADAGYDVVIVERKDETEAGHIACGDALKGASDFPDAIPKSQLEPAFTNTDVDHGRFEIPQEDTVLEIPVPGELAVIDRWEYGRCLIEGANDSGVEFHYDTVVQDVLQDDSGRVTGVKAMRKGDPVTYEGDMVIDGAGALSILQDKTDLEAATFDTNVQYSQFCSAYREIIEVDEPVEWDDALVFKPTERSAGYLWYFPRTDTEINAGLGFQMNEEPMELVDDLKRDLQGRSEFEGAEVQDKLGAALPTRRPYDSAVAPGFMAVGDAAGHVNPTTGGGIAGAAYAGTYAAEQAIEAIEAGRTDDEAALWEYNERVMDHFGARYAALDVYNIFTTAYDVDDLMALLAALPGEKLAEALYGGSTSIGLGLKLKMAVKSIGHLGTIRDLYQTKKAADRLLEHYESYPSDRSGFEAWQRERDSIMDDIYEVTGAEPKYLEHHHHHH", "soluble on expression in E. coli": "soluble"}, {"sequence": "MTTKKADYIWFNGEMVRWEDAKVHVMSHALHYGTSVFEGIRCYDSHKGPVVFRHREHMQRLHDSAKIYRFPVSQSIDELMEACRDVIRKNNLTSAYIRPLIFVGDVGMGVNPPAGYSTDVIIAAFPWGAYLGAEALEQGIDAMVSSWNRAAPNTIPTAAKAGGNYLSSLLVGSEARRHGYQEGIALDVNGYISEGAGENLFEVKDGVLFTPPFTSSALPGITRDAIIKLAKELGIEVREQVLSRESLYLADEVFMSGTAAEITPVRSVDGIQVGEGRCGPVTKRIQQAFFGLFTGETEDKWGWLDQVNQ", "soluble on expression in E. coli": "soluble"}, {"sequence": "MTTLLRLATAGSVDDGKSTLIGRLLYDSKAVMEDQWASVEQTSKDRGHDYTDLALVTDGLRAEREQGITIDVAYRYFATPKRKFIIADTPGHIQYTRNMVTGASTAQLVIVLVDARHGLLEQSRRHAFLASLLGIRHLVLAVNKMDLLGWDQEKFDAIRDEFHAFAARLDVQDVTSIPISALHGDNVVTKSDQTPWYEGPSLLSHLEDVYIAGDRNMVDVRFPVQYVIRPHTLEHQDHRSYAGTVASGVMRSGDEVVVLPIGKTTRITAIDGPNGPVAEAFPPMAVSVRLADDIDISRGDMIARTHNQPRITQEFDATVCWMADNAVLEPGRDYVVKHTTRTVRARIAGLDYRLDVNTLHRDKTATALKLNELGRVSLRTQVPLLLDEYTRNASTGSFILIDPDTNGTVAAGMVLRDVSARTPSPNTVRHRSLVTAQDRPPRGKTVWFTGLSGSGKSSVAMLVERKLLEKGISAYVLDGDNLRHGLNADLGFSMADRAENLRRLSHVATLLADCGHLVLVPAISPLAEHRALARKVHADAGIDFFEVFCDTPLQDCERRDPKGLYAKARAGEITHFTGIDSPYQRPKNPDLRLTPDRSIDEQAQEVIDLLESSS", "soluble on expression in E. coli": "not soluble"}, {"sequence": "MTTMNPFLVQSTLPYLAPHFDQIANHHYRPAFDEGMQQKRAEIAAIALNPQMPDFNNTILALEQSGELLTRVTSVFFAMTAAHTNDELQRLDEQFSAELAELANDIYLNGELFARVDAVWQRRESLGLDSESIRLVEVIHQRFVLAGAKLAQADKAKLKVLNTEAATLTSQFNQRLLAANKSGGLVVNDIAQLAGMSEQEIALAAEAAREKGLDNKWLIPLLNTTQQPALAEMRDRATREKLFIAGWTRAEKNDANDTRAIIQRLVEIRAQQATLLGFPHYAAWKIADQMAKTPEAALNFMREIVPAARQRASDELASIQAVIDKQQGGFSAQPWDWAFYAEQVRREKFDLDEAQLKPYFELNTVLNEGVFWTANQLFGIKFVERFDIPVYHPDVRVWEIFDHNGVGLALFYGDFFARDSKSGGAWMGNFVEQSTLNKTHPVIYNVCNYQKPAAGEPALLLWDDVITLFHEFGHTLHGLFARQRYATLSGTNTPRDFVEFPSQINEHWATHPQVFARYARHYQSGAAMPDELQQKMRNASLFNKGYEMSELLSAALLDMRWHCLEENEAMQDVDDFELRALVAENMDLPAIPPRYRSSYFAHIFGGGYAAGYYAYLWTQMLADDGYQWFVEQGGLTRENGLRFREAILSRGNSEDLERLYRQWRGKAPKIMPMLQHRGLNI", "soluble on expression in E. coli": "soluble"}, {"sequence": "MTTMRTGSQIFMRSGQWNELWKEKNVPLRFTNPNISFDGSERTKAEIEVVDSQEKSLVTRNMQIIPWQHDIANLHLPERDSLILMPCATRTVGRRLTARNIGLADTRGNCDISWPGVMIKIYGQQAVTSARSHQKTAVLFSVRRAQVAAMILTYPWLLSEPVRVIARYSGVSVGTVSNALKIFQKAGYLAETMDGHRLVNAELFLSAWARAYPTGLGADLELLRGKAQQLPPYNLEHLGVKASESAVSDHISDGQSASLYLGEETFSPKVIKELRLVKNPAGTITLRRAFWNTIDVKEIPEAIVYADLLNSDDARLWDVAQIIKAIILKRARGDWLGDQDG", "soluble on expression in E. coli": "not soluble"}, {"sequence": "MTTQIELGDITVDVVLKDIKNIHLSVYPPNGRVKISAPLRMDIDTIRVFAISRLGWIKQQRKKFQEQERETPREYLDLESHYVWGKRYLLKVIEVNEAPSVELKHSKMILRVRPGTDDKKRQSIIDAWYREQLKKAIPPLIARWEPLLGVKVERFFVQRMRTKWGSCNHKARNIRLNTELAKKPEECLEYTIVHEMAHILEPTHNSHFITLMDQFMPKWQFCRDRLNQLPVRHEDWIYLEHHHHHH", "soluble on expression in E. coli": "soluble"}, {"sequence": "MTTRQIKIVPKLIAIFTGKAAVRAAWGGRGSGKTRSFALMAALKGYQFGMGGISGTILCARQFQNSLAESSLEEIKRAIEGHDFLKDYYKVGESSIKSIDGRIAFQFSGLDRNIASIKSMGRILLCWVDEAEPVTETAWQTLIPTLREEGEGWRAELWVTWNPLRDNAPVERRFRFSNNEAIKRVEINWSDNPKFPKILNEARLDDLKNRPETYKHIWEGAYLTAVQGAYYQKEMLAAEQEGRIGRVARDPLMQMRAFWDIGGTGAKADATAIWIAQFVGREIRVLDYYEAQGQPLSEHIGWLRRNGYEKALMVLPHDGATRDRVHNVSFESALNDAGFETQVIPHQGAGAVKMRIEAVRRILPSVWFHEETTVAGRKALNWYHEKWDEKRGIGLGAEHDWSSHGADAFGLMCIVYEAPRIKPQQERYRAIEREAASWMAF", "soluble on expression in E. coli": "not soluble"}, {"sequence": "MTTRVLYVRHAHAHGRQTWGGDDNKRPLDKKGRRQAEMLVPMLLPFKPTAIYSAVPDRCQATALPLADELGLDVSVNRLFGDDAWETDPEACKKRFTDVVAQGGVPMIVGQGDIIPEMIKWFSENGTLPIDEKIKAKKGSVWVLSFHDGVFTGADYLEHHHHHH", "soluble on expression in E. coli": "soluble"}]}]}
